Test results from patent US20260151494A1 (ARO BIOTHERAPEUTICS, published 2026).
Substitutions are numbered along the chain they refer to.

B1: CD71-binding FN3 domain of SEQ ID NO: 552 (designed binder)
chain: MLPAPKNLVVSRVTEDSARLSWTAPDAAFDSFFIGYLEPQPPGEAIHLFVPGSERSYDLTGLKPGTEYNVTIQGVKGGFPSMPLSAIFTT
B2: CD71-binding FN3 domain of SEQ ID NO: 550 (designed binder)
chain: B1 chain with M82I, S85Y, I87R
B3: CD71-binding FN3 domain of SEQ ID NO: 549 (designed binder)
chain: B1 chain with H47S, F49W
B4: CD71-binding FN3 domain of SEQ ID NO: 547 (designed binder)
chain: B1 chain with F49I, M82D, S85V, I87S
B5: CD71-binding FN3 domain of SEQ ID NO: 548 (designed binder)
chain: B1 chain with H47Y
B6: CD71-binding FN3 domain of SEQ ID NO: 546 (designed binder)
chain: MLPAPKNLVVSRVTEDSARLSWTAPDAAFDSFEIAYIEVNIQGEAIVLTVPGSERSYDLTGLKPGTEYYVHIGGVKGGPSSSPLSAIFTT
B7: CD71-binding FN3 domain of SEQ ID NO: 551 (designed binder)
chain: B6 chain with I37F, V39T, N40C, I41R, Q42T, Y69W, H71Q, P79N, S80W, S82A
B8: CD71-binding FN3 domain of SEQ ID NO: 373 conjugated to KRAS2 siRNA (designed binder)
chain: B1 chain with H47S, M82D, S85V, I87S
modifications: conjugated to KRAS2 tool siRNA; site and linker not stated
B9: CD71-binding FN3 domain of SEQ ID NO: 478 conjugated to KRAS2 siRNA (designed binder)
chain: B1 chain with F49Y, M82V, S85I, I87K
modifications: conjugated to KRAS2 tool siRNA; site and linker not stated
B10: CD71-binding FN3 domain of SEQ ID NO: 472 conjugated to KRAS2 siRNA (designed binder)
chain: B1 chain with H47E, F49Y, M82L, S85V, I87T
modifications: conjugated to KRAS2 tool siRNA; site and linker not stated
B11: CD71-binding FN3 domain of SEQ ID NO: 516 conjugated to KRAS2 siRNA (designed binder)
chain: B1 chain with H47S, F49W, M82S, S85V, I87Y
modifications: conjugated to KRAS2 tool siRNA; site and linker not stated
B12: CD71-binding FN3 domain of SEQ ID NO: 529 conjugated to KRAS2 siRNA (designed binder)
chain: B1 chain with H47D, F49Y, M82L, S85Q, I87H
modifications: conjugated to KRAS2 tool siRNA; site and linker not stated
B13: CD71-binding FN3 domain of SEQ ID NO: 400 conjugated to KRAS2 siRNA (designed binder)
chain: B1 chain with M82G, S85H, I87T
modifications: conjugated to KRAS2 tool siRNA; site and linker not stated
B14: CD71-binding FN3 domain of SEQ ID NO: 447 conjugated to KRAS2 siRNA (designed binder)
chain: B1 chain with H47Y, F49Y, M82Y, S85T, I87Q
modifications: conjugated to KRAS2 tool siRNA; site and linker not stated
B15: CD71-binding FN3 domain of SEQ ID NO: 508 conjugated to KRAS2 siRNA (designed binder)
chain: B1 chain with H47T, F49S, M82E, S85I
modifications: conjugated to KRAS2 tool siRNA; site and linker not stated
B16: CD71-binding FN3 domain of SEQ ID NO: 476 conjugated to KRAS2 siRNA (designed binder)
chain: B1 chain with F49Q, M82I, S85I, I87V
modifications: conjugated to KRAS2 tool siRNA; site and linker not stated
B17: CD71-binding FN3 domain of SEQ ID NO: 496 conjugated to KRAS2 siRNA (designed binder)
chain: B1 chain with H47I, F49W, M82V, S85I, I87Q
modifications: conjugated to KRAS2 tool siRNA; site and linker not stated

biological target: T1, apical domain of human CD71 (human, UniProt P02786 189-383, limits assumed); test: primary ELISA screen, Screen 4; signal on apical domain over signal on HSA
T1 construct: domain: apical domain; Screen 4 panned against human apical domains; also called human apical domain
T1 sequence (P02786 189-383 limits assumed): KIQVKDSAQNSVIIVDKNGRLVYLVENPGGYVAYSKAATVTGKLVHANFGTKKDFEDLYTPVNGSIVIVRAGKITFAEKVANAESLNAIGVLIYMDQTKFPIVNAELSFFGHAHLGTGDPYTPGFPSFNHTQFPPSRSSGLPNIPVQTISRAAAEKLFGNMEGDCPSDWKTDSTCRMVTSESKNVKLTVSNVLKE

Apical domain:HSA | Binder
137 ratio | B1
170 ratio | B2
242 ratio | B3
322 ratio | B4
257 ratio | B5
466 ratio | B6
158 ratio | B7

biological target: T1, apical domain of human CD71; test: primary ELISA screen, Screen 4, luminescence; also: test concentration or dose not given here

Apical domain, RLU | Binder
5.7e+06 RLU | B1
5.8e+06 RLU | B2
3.49e+06 RLU | B3
5.35e+06 RLU | B4
5.29e+06 RLU | B5
4.4e+06 RLU | B6
4.07e+06 RLU | B7

biological target: T2, human CD71 extracellular domain (human, UniProt P02786 89-760); test: primary ELISA screen, Screen 4, luminescence; also: test concentration or dose not given here
T2 construct: also called hCD71; CD71-ECD
T2 sequence (P02786 89-760): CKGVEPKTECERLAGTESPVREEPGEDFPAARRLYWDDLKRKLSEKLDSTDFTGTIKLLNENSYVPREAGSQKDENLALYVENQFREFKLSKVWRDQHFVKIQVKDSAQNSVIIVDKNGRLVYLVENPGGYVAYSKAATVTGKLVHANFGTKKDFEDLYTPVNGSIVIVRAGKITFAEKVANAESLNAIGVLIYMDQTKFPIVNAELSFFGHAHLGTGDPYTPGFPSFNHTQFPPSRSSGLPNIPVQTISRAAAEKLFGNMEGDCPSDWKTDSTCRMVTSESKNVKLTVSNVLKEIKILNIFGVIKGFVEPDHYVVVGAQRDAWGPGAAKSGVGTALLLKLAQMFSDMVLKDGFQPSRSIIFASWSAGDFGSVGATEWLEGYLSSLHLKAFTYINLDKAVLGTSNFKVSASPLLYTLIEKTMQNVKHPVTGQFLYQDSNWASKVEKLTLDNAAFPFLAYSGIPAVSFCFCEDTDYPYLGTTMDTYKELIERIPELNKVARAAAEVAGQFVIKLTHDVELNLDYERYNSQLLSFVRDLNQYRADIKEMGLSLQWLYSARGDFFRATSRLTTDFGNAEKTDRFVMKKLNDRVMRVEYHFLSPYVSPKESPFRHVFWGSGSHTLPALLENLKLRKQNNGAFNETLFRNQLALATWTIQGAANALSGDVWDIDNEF

hCD71, RLU | Binder
4.95e+06 RLU | B1
4.79e+06 RLU | B2
2.86e+06 RLU | B3
4.59e+06 RLU | B4
4.73e+06 RLU | B5
3.53e+06 RLU | B6
1.17e+06 RLU | B7

biological target: T2, human CD71 extracellular domain; test: primary ELISA screen, Screen 4; signal on hCD71 over signal on HSA

hCD71:HSA | Binder
119 ratio | B1
141 ratio | B2
198 ratio | B3
277 ratio | B4
230 ratio | B5
374 ratio | B6
45 ratio | B7

biological target: human CD71 on cells (SKBR3; SW620-rLuc-KRAS) (human, UniProt P02786 1-760); test: cell-based or functional assay
Sequence (P02786 whole entry): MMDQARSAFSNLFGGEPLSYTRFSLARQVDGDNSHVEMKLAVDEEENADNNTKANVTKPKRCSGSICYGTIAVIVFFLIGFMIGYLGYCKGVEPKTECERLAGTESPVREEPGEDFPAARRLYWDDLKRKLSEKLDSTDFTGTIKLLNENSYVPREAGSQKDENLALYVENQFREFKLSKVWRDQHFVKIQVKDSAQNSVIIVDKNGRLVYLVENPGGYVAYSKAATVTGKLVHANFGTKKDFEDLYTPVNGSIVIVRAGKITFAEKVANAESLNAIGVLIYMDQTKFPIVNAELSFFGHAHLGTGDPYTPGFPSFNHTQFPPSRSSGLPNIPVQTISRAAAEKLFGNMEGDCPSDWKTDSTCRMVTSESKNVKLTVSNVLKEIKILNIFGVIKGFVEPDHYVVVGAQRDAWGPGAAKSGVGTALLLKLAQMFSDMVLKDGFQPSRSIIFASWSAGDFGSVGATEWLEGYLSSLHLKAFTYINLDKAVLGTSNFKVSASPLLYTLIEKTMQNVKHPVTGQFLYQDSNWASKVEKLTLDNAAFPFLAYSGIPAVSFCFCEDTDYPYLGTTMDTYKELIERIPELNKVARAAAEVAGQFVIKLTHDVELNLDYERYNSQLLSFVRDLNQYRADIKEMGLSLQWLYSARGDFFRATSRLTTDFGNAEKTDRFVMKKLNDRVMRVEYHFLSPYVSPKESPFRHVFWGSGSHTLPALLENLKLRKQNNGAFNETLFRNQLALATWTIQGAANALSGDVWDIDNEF

LSA EC50 (luciferase reporter assay, SW620-rLuc-KRAS cells, 72 h) | Binder
0.15 nM | B8
0.21 nM | B9
0.15 nM | B10
0.6 nM | B11
0.52 nM | B12
0.24 nM | B13
0.53 nM | B14
0.6 nM | B15
0.31 nM | B16
0.22 nM | B17
